Legend:
Assay in all cases: EC50 of free RNA motif oligo competing protein binding to immobilised probe
GPALPP1 = biological target: T1, GPALPP1 (UniProt Q8IXQ4)
T1 sequence: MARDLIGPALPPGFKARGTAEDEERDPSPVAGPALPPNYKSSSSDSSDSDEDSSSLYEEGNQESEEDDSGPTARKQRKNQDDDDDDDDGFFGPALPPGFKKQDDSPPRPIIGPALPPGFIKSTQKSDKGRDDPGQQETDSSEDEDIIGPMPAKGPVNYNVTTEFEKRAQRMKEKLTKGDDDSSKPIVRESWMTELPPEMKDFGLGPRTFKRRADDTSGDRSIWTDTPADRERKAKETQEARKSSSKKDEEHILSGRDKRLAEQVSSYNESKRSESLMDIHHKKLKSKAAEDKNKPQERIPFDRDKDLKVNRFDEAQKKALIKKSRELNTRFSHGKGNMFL
How it was run: (§1)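 Free RNA oligos (0 nM to 30 μM) competed for 1 h at 4°C in HEK293-FT lysate (2.5 mg protein/well) before a 30 min, 4°C pulldown with the same oligos on NHS-Sepharose beads. Bound proteins were quantified by label-free LC-MS/MS and normalised to the control. Kd was found by multiplying EC50, from a four-parameter log-logistic fit, by a protein-dependent depletion factor.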

SRRM2 = SRRM2 (UniProt Q9UQ35)
Sequence of SRRM2 (Q9UQ35 whole entry): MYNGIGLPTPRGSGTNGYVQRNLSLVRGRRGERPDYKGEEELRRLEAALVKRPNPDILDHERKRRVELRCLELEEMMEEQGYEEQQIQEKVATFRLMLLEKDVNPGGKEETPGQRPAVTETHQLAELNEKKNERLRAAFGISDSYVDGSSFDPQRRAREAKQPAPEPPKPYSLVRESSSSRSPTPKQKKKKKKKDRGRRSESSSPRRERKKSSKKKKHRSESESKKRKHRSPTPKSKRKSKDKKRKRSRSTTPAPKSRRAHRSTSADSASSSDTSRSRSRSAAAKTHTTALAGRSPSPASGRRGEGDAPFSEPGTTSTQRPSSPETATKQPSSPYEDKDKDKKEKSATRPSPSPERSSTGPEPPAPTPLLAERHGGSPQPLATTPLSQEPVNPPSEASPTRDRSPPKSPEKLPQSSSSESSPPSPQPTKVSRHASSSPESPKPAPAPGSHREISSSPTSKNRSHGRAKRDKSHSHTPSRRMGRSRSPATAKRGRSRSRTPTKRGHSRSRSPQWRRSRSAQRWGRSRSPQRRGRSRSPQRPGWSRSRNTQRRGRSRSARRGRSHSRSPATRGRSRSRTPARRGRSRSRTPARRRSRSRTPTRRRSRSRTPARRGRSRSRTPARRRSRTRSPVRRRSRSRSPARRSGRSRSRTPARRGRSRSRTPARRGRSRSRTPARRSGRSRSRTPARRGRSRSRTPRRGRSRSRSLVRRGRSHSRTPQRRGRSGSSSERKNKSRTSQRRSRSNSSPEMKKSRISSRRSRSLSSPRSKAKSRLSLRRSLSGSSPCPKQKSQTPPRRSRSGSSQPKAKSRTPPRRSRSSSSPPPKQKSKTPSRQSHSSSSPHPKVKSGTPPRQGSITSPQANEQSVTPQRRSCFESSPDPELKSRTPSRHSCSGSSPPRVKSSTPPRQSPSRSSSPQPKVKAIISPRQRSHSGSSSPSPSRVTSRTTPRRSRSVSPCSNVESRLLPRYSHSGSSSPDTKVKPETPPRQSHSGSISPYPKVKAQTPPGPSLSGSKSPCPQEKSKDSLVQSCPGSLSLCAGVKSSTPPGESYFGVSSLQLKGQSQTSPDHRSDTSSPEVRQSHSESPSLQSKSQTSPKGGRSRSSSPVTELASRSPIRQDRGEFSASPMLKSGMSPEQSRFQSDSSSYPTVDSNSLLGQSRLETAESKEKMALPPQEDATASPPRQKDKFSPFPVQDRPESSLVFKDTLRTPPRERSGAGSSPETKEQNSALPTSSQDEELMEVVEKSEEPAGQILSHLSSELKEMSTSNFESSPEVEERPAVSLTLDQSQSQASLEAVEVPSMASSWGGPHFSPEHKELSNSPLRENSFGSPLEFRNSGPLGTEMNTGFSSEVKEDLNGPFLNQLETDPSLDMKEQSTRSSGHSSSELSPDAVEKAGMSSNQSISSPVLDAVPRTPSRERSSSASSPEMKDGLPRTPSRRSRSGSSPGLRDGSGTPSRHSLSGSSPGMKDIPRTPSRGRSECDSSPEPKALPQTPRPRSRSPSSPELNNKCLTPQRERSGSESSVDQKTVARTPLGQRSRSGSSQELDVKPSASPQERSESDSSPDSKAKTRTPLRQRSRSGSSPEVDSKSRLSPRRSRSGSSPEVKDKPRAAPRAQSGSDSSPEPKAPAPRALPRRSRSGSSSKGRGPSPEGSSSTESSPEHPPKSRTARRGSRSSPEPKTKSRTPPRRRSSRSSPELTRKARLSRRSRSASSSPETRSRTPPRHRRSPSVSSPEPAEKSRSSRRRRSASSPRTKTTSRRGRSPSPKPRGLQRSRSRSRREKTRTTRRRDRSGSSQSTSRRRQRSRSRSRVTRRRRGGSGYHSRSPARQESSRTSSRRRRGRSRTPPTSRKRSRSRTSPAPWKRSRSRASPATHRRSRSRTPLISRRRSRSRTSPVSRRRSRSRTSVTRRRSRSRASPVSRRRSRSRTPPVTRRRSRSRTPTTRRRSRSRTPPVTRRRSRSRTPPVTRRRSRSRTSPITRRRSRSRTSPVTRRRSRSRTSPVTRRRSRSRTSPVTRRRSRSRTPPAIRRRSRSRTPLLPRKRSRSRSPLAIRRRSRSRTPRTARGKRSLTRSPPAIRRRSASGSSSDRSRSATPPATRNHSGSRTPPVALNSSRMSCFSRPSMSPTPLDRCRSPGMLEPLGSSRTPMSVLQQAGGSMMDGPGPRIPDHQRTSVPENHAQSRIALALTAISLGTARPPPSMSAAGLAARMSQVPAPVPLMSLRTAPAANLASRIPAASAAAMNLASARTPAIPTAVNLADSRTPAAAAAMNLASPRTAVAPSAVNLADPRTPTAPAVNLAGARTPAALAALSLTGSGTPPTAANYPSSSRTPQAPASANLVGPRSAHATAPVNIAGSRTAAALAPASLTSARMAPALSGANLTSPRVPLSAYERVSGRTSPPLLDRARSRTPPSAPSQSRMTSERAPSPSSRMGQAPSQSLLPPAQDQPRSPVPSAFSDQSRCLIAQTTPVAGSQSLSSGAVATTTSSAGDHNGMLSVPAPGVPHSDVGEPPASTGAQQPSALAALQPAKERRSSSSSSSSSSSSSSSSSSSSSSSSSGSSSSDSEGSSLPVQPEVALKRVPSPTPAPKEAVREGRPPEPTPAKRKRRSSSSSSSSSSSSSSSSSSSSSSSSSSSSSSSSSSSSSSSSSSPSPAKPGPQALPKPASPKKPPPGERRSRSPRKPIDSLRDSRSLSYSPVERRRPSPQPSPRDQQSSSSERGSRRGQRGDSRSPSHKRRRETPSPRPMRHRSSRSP
How it was run: as §1

MEX3D = biological target: T2, MEX3D (UniProt Q86XN8)
T2 sequence: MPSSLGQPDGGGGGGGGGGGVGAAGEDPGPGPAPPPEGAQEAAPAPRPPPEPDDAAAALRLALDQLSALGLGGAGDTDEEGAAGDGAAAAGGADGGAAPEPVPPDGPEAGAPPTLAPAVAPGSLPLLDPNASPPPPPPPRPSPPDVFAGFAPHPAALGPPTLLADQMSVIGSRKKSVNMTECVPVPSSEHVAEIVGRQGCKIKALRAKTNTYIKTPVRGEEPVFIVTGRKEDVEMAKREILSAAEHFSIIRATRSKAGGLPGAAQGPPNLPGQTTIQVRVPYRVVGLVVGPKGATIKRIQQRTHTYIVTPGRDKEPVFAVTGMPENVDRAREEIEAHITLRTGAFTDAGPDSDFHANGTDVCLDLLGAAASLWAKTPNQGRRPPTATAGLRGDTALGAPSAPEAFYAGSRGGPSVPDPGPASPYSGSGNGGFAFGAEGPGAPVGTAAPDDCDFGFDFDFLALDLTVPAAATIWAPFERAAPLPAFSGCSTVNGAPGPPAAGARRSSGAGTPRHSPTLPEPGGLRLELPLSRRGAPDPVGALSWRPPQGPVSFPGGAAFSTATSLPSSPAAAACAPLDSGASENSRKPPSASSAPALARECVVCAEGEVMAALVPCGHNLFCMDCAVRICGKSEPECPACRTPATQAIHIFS
How it was run: as §1

PRPF31 = biological target: T3, PRPF31 (UniProt Q8WWY3)
T3 sequence: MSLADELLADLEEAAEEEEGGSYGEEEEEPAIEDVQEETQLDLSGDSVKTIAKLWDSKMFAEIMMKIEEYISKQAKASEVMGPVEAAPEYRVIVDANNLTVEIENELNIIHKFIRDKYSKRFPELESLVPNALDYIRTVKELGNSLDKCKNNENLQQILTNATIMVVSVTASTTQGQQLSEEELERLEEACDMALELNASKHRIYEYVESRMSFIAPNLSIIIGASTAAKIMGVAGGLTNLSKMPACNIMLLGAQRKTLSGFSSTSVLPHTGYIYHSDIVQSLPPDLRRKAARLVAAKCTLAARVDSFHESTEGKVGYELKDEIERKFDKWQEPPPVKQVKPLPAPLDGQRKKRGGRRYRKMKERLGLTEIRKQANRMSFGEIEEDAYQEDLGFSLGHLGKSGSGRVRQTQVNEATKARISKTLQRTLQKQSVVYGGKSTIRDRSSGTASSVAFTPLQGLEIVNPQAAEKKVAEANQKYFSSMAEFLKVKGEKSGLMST
How it was run: as §1

| Sequence | EC50 (GPALPP1) | EC50 (SRRM2) | EC50 (MEX3D) | EC50 (PRPF31) |
| --- | --- | --- | --- | --- |
| AAUAAA | 33.8 nM | 1040 nM |  |  |
| UAUUUAU |  |  | 714 nM | 5840 nM |
